Legend:
[1] = system: c-Abl (mouse); assay: phosphorylation enrichment, bacterial display (enrichment ratio); higher = better substrate or ligand; peptides without Tyr show the background
[2] = target: MERTK (UniProt Q12866); assay: as above
[3] = target: FGFR3 (UniProt P22607); assay: as above
[4] = system: c-Src; assay: as above
[5] = target: Fyn (UniProt P06241); assay: as above
[6] = target: Hck (UniProt P08631); assay: as above
[7] = target: Jak2 (UniProt O60674); assay: as above
[8] = system: Fer (mouse); assay: as above
[9] = target: Fes (UniProt P07332); assay: as above
Chain of Fes (P07332 whole entry, looked up): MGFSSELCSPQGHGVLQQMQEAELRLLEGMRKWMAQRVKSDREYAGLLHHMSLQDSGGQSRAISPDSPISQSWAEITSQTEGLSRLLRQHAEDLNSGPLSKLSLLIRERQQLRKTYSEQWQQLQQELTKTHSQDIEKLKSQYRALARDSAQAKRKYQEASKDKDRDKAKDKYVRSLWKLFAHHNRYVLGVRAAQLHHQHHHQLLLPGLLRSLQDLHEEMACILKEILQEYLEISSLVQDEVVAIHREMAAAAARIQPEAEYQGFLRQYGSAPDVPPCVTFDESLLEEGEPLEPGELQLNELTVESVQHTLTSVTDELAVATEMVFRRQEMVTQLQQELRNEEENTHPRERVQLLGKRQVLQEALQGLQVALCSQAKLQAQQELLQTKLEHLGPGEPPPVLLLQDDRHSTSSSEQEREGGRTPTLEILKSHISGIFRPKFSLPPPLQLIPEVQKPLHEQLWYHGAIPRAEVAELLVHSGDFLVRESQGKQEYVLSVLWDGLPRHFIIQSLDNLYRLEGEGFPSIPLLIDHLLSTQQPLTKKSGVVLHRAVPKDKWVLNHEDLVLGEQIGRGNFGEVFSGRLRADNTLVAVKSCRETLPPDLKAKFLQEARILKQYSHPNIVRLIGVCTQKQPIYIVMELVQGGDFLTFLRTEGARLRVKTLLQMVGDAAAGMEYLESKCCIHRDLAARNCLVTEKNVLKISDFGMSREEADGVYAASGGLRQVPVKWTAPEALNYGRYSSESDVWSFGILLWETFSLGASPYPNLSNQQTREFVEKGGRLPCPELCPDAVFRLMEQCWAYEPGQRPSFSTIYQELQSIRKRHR

[10] = target: FGFR1 (UniProt P11362); assay: as above
Chain of FGFR1 (P11362 whole entry, looked up): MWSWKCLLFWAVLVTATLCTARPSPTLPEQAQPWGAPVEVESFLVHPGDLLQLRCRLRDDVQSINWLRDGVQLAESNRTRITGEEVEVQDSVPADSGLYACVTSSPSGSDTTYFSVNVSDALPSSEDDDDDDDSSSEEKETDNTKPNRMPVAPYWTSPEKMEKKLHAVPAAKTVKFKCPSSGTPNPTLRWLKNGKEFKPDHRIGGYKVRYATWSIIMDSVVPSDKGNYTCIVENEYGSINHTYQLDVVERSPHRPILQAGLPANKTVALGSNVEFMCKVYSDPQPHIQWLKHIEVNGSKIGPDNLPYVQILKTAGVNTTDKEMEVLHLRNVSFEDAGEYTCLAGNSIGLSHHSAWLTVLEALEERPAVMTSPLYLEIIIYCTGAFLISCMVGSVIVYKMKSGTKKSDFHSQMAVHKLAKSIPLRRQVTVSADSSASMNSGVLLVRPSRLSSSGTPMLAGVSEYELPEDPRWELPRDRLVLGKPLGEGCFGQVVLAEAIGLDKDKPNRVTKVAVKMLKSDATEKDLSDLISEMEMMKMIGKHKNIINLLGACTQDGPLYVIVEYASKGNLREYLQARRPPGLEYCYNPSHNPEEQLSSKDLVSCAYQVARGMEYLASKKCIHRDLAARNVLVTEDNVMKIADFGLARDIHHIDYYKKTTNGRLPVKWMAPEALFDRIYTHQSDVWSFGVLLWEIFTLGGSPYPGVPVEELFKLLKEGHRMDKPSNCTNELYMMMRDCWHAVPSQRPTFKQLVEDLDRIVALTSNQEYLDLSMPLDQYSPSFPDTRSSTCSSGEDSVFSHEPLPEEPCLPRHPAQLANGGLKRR

[11] = system: AncSZ; assay: as above
[12] = target: EPHB2 (UniProt P29323); assay: as above
[13] = target: EPHB1 (UniProt P54762); assay: as above
[14] = target: Grb2 SH2 (UniProt P62993); assay: SH2 binding enrichment of the phosphorylated peptide, bacterial display (enrichment ratio); higher = better substrate or ligand; peptides without Tyr show the background
[15] = target: c-Src SH2; assay: as above
[16] = target: SHP2-C SH2; assay: as above
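For SH2 binding enrichment of the phosphorylated peptide, bacterial display in this document: peptide library displayed on the E. coli surface as eCPX fusions, selected cells deep-sequenced, score is each peptide's frequency after selection divided by its frequency in the input.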
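For phosphorylation enrichment, bacterial display in this document: 11-residue human phosphosite peptides and single-mutation variants displayed on the E. coli surface, counted by deep sequencing, each peptide's frequency after selection divided by its frequency in the unselected input library; frequency after pTyr selection over input frequency; kinase dosed for 20-30% of maximal phosphorylation in three min.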

Chain of Fyn (P06241 whole entry, looked up): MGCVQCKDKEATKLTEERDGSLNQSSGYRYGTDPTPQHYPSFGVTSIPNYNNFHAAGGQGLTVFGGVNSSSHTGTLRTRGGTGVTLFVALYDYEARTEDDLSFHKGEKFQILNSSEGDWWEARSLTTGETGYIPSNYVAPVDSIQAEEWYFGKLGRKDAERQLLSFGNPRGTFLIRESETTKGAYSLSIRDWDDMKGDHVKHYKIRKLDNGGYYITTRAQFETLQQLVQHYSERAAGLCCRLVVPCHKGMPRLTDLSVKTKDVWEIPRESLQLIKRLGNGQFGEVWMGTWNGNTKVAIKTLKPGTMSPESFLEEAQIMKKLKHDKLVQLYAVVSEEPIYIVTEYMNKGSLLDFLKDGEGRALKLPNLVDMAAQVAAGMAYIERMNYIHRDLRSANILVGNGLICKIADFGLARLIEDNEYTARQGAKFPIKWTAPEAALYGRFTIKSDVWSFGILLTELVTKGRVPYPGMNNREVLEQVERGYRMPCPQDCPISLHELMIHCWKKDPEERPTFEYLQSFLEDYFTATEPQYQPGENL
Chain of FGFR3 (P22607 whole entry, looked up): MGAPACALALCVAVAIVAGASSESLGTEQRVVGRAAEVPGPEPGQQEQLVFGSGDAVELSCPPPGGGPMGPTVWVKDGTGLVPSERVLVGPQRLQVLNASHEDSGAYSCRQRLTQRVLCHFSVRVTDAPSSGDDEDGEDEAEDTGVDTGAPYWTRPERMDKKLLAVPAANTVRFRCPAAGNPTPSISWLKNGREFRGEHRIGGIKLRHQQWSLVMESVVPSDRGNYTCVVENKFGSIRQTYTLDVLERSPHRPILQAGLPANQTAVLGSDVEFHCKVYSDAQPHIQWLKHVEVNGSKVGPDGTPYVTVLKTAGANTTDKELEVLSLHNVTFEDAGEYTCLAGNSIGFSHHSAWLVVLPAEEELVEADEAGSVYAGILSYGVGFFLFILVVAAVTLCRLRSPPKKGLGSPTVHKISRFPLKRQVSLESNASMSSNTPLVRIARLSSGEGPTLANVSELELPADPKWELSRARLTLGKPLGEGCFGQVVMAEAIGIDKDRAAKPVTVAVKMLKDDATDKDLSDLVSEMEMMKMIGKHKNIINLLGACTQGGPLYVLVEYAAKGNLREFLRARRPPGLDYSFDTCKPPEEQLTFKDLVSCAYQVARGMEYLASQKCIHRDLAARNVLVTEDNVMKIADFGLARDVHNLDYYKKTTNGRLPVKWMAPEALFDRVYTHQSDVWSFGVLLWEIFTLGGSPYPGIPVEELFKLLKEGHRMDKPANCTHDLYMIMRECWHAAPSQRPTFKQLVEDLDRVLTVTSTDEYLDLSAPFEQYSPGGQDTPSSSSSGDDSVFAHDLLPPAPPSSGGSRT
Chain of Hck (P08631 whole entry, looked up): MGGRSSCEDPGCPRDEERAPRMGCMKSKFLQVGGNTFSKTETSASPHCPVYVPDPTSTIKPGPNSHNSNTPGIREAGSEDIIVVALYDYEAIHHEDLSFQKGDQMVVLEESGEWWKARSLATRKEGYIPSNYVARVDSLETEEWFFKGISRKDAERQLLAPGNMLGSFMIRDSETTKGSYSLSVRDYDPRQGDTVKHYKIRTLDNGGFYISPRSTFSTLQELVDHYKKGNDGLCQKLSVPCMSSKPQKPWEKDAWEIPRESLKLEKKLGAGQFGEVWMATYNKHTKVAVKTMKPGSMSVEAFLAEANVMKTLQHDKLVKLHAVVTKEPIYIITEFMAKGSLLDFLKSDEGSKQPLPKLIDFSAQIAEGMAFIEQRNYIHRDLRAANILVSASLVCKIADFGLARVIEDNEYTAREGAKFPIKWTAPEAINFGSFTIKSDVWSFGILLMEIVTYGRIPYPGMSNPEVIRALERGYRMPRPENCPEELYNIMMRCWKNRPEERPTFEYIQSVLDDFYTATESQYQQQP
Chain of Jak2 (O60674 whole entry, looked up): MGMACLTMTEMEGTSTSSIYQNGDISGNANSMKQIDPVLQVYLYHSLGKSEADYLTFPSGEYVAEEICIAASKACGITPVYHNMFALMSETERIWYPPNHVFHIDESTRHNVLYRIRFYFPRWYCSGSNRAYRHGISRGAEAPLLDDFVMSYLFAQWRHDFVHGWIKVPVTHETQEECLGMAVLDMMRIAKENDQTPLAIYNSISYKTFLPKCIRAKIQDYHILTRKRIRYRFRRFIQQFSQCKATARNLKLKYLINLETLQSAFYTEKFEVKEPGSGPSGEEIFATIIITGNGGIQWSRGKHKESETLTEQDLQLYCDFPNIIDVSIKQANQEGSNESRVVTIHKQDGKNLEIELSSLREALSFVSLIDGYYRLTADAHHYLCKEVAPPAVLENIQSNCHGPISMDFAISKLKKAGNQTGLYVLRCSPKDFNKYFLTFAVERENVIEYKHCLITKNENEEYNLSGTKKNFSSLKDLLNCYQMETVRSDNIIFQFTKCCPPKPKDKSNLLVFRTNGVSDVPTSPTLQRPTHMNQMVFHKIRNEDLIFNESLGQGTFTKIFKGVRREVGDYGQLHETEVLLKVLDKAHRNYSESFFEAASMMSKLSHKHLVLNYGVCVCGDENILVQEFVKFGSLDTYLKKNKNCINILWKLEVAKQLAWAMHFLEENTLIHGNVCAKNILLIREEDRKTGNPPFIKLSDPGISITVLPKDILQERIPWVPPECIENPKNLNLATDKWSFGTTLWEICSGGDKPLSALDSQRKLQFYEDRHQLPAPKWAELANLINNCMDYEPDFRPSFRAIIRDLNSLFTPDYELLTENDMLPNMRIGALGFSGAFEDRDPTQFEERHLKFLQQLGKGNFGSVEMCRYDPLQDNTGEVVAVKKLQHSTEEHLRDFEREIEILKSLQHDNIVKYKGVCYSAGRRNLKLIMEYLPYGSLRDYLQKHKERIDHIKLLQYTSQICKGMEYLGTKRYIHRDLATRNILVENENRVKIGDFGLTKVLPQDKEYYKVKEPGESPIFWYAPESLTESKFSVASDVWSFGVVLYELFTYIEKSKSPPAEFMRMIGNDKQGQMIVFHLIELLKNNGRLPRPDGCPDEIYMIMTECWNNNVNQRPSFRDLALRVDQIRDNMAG

Row | Sequence | SH2 binding enrichment [14] | SH2 binding enrichment [15] | SH2 binding enrichment [16] | phosphorylation enrichment [1] | phosphorylation enrichment [2] | phosphorylation enrichment [3] | phosphorylation enrichment [4] | phosphorylation enrichment [5] | phosphorylation enrichment [6] | phosphorylation enrichment [7] | phosphorylation enrichment [8] | phosphorylation enrichment [9] | phosphorylation enrichment [10] | phosphorylation enrichment [11] | phosphorylation enrichment [12] | phosphorylation enrichment [13]
1 | TFEYRYLEDRD [CNOT3_Y746] | 0.76 | 1.01 | 0.81 | 0.827 | 0.493 | 0.848 | 0.537 | 0.545 | 0.534 | 1.02 | 0.472 | 1.35 | 0.935 | 1.16 | 0.504 | 0.623
2 | FSGIFYKPESL [L2HGDH_Y103_H98Y_YF] | 1.17 | 0.56 | 1.27 | 0.81 | 0.431 | 0.673 | 0.611 | 0.438 | 0.393 | 0.935 | 0.471 | 1.03 | 0.436 | 0.968 | 0.5 | 0.5
3 | MPLTKYLKRIK [CNGB3_Y200_E199K] | 1.27 | 0.834 | 1.03 | 0.498 | 0.431 | 0.488 | 0.391 | 0.377 | 0.534 | 0.477 | 0.425 | 0.623 | 0.472 | 0.641 | 0.377 | 0.425
4 | SFGESYDNSKS [MAN1B1_Y60_N59S] | 0.928 | 0.437 | 0.568 | 0.747 | 0.502 | 0.595 | 0.508 | 0.466 | 0.482 | 0.939 | 0.433 | 0.953 | 0.493 | 0.813 | 0.508 | 0.474
5 | CDSSGYWTPEE [PAPPA2_Y908] | 0.967 | 14.9 | 1.08 | 0.727 | 0.494 | 0.783 | 0.508 | 0.454 | 0.555 | 1.22 | 0.556 | 1.47 | 0.579 | 1.25 | 0.654 | 0.676
6 | KYLENYLNCLL [PLD2_Y169_R172C] | 0.983 | 0.747 | 0.835 | 1.03 | 0.52 | 1.05 | 0.498 | 0.476 | 0.456 | 1.28 | 0.707 | 1.47 | 0.989 | 1.1 | 0.776 | 1.18
7 | RLLRGYRQDAY [HLA-A_Y137_F133L] | 0.638 | 0.437 | 0.593 | 0.67 | 0.694 | 0.519 | 0.537 | 0.769 | 0.645 | 0.802 | 0.653 | 0.777 | 0.608 | 0.985 | 0.611 | 0.374
8 | KKHIPCREHKS [CSNK1G2_Y206_Y206C] | 1.6 | 1.68 | 1.62 | 2.79 | 0.713 | 3.13 | 0.832 | 0.667 | 0.876 | 3.46 | 1.66 | 2.35 | 1.13 | 1.76 | 0.962 | 1.6

Further lines, with some results ahead:

Row | SH2 binding enrichment [14] | SH2 binding enrichment [15] | SH2 binding enrichment [16] | Sequence | phosphorylation enrichment [1] | phosphorylation enrichment [2] | phosphorylation enrichment [3] | phosphorylation enrichment [4] | phosphorylation enrichment [5] | phosphorylation enrichment [6] | phosphorylation enrichment [7] | phosphorylation enrichment [8] | phosphorylation enrichment [9] | phosphorylation enrichment [10] | phosphorylation enrichment [11] | phosphorylation enrichment [12] | phosphorylation enrichment [13]
9 | 0.786 | 1.31 | 0.648 | AVVEPYNSLLT [TUBA1A_Y185_I188L] | 0.579 | 0.454 | 0.54 | 0.463 | 0.426 | 0.427 | 1.19 | 0.394 | 0.891 | 0.399 | 0.888 | 0.618 | 0.574
10 | 1.06 | 0.576 | 0.826 | EPNSRYTCKLE [USH2A_Y3745_Y3747C] | 0.762 | 0.497 | 0.724 | 0.539 | 0.563 | 0.549 | 0.897 | 0.566 | 0.985 | 0.621 | 1.02 | 0.562 | 0.556
11 | 0.847 | 0.55 | 0.785 | NTADFYDLFGG [PTPN11_Y63_G60A_YF] | 0.8 | 2.3 | 0.608 | 4.45 | 4.53 | 3.02 | 1.2 | 1.6 | 1.12 | 0.515 | 0.993 | 0.591 | 0.628
12 | 1.32 | 0.873 | 0.72 | EFITRYIASLK [PSMA7_Y110_YF] | 0.648 | 0.475 | 0.536 | 0.435 | 0.495 | 0.436 | 0.695 | 0.454 | 0.806 | 0.419 | 0.84 | 0.506 | 0.585
13 | 0.773 | 0.493 | 0.593 | TLERHYKELQA [SPTBN2_Y834_E835K] | 0.612 | 0.571 | 0.509 | 0.472 | 0.446 | 0.375 | 0.704 | 0.415 | 0.787 | 0.449 | 0.713 | 0.546 | 0.363
14 | 0.797 | 0.423 | 0.48 | HLQDEYDFKCK [STAT1_Y170_D165H] | 0.776 | 0.884 | 0.924 | 0.871 | 0.631 | 0.589 | 1.5 | 0.471 | 1.59 | 0.581 | 1.33 | 0.585 | 0.621
15 | 1.12 | 0.895 | 1.44 | KPGLIYNKVNP [SPRED3_Y72_V71I] | 0.857 | 1.07 | 0.429 | 0.975 | 0.738 | 2.25 | 0.722 | 0.803 | 1 | 0.373 | 0.703 | 0.408 | 0.485
16 | 0.672 | 0.491 | 0.787 | SVTSTYSPALN [TP53_Y126_C124S] | 0.586 | 0.379 | 0.398 | 0.488 | 0.432 | 0.459 | 0.465 | 0.436 | 0.712 | 0.511 | 0.641 | 0.426 | 0.437

Reference: the supplement of paper PMC10065799, “High-throughput profiling of sequence recognition by tyrosine kinases and SH2 domains using bacterial peptide display” (eLife, 2023)
